Results: article PMC6747400, “Mismatch Recognition by Saccharomyces cerevisiae Msh2-Msh6: Role of Structure and Dynamics”
Positions count from the first letter of the chain named.

What was measured:
Msh2;Msh6 [1] = target: T1, Msh2;Msh6 (Saccharomyces cerevisiae;Saccharomyces …, UniProt P25847;Q03834 1-964;1-1242, |); assay: fluorescence anisotropy; Fluorescence/FRET: 10 mM sodium phosphate pH 7.5, 100 mM NaCl, 5 mM MgCl2, 10 C (10 nM DNA for anisotropy); EMSA: 20 mM Tris-Cl pH 7.5, 100 mM NaCl, 5 mM MgCl2, 2% ficoll, 4 C, 10 nM DNA; conditions: protein: recombinant;recombinant, tags: ;, copies: 1;1, blunt
T1 sequence (P25847 whole entry, chain 1 of 2): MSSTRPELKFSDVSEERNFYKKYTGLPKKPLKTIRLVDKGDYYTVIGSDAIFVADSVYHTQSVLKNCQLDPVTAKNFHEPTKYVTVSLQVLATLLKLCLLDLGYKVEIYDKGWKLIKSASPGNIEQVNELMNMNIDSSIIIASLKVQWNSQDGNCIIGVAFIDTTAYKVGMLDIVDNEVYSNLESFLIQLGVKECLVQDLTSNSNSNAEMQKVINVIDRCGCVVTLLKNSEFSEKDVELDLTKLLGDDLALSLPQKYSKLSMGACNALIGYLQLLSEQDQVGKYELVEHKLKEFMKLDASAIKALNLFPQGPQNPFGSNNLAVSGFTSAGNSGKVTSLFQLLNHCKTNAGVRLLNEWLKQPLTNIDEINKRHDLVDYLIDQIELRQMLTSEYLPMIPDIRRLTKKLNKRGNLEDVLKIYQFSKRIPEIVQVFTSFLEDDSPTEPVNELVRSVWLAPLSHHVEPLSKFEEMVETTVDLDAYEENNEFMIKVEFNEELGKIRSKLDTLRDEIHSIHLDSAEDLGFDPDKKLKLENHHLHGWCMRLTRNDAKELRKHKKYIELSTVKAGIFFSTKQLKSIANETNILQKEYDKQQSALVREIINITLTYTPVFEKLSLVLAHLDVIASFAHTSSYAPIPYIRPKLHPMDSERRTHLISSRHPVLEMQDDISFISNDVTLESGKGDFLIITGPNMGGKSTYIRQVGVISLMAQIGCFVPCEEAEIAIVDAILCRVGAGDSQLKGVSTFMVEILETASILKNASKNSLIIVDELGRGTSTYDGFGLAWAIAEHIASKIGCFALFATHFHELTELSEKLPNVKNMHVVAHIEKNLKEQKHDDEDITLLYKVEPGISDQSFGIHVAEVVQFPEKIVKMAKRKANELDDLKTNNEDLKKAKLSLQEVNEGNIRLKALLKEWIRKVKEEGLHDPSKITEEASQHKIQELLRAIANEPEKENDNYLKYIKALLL
T1 sequence (Q03834 whole entry, chain 2 of 2): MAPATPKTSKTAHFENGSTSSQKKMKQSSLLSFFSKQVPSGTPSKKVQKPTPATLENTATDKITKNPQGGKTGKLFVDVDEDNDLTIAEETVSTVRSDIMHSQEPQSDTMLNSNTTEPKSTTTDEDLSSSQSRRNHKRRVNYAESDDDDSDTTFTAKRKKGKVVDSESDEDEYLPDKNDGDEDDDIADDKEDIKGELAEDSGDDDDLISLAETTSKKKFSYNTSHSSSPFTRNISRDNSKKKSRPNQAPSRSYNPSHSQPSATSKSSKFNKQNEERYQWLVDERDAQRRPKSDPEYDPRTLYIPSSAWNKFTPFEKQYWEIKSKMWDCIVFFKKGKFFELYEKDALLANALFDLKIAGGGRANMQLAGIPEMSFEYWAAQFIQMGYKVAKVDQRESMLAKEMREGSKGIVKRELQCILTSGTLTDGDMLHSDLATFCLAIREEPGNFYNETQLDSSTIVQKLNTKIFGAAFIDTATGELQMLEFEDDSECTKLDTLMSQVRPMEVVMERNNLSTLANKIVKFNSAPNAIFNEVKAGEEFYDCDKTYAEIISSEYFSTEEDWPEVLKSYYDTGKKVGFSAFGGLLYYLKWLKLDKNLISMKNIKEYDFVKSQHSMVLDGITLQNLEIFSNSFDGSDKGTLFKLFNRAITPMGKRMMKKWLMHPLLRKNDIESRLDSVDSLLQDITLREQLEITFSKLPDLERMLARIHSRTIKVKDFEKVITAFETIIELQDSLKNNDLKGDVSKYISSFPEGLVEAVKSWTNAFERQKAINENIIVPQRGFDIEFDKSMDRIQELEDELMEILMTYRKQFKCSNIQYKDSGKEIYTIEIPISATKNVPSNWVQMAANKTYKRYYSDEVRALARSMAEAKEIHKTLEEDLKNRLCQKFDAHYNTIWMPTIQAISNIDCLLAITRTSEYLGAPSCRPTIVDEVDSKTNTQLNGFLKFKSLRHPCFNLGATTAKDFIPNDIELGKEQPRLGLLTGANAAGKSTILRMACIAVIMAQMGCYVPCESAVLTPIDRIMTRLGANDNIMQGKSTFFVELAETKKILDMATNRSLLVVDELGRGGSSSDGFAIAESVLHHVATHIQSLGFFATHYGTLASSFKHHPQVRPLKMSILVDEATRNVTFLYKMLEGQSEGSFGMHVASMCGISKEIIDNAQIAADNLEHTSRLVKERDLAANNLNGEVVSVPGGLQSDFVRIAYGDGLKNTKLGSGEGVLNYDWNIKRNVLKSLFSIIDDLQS

Msh2;Msh6 [2] = target: T1, Msh2;Msh6; assay: fluorescence anisotropy; text gives error 6.9; Fluorescence/FRET: 10 mM sodium phosphate pH 7.5, 100 mM NaCl, 5 mM MgCl2, 10 C (10 nM DNA for anisotropy); EMSA: 20 mM Tris-Cl pH 7.5, 100 mM NaCl, 5 mM MgCl2, 2% ficoll, 4 C, 10 nM DNA; conditions: protein: recombinant;recombinant; tags: ;; copies: 1;1; label: 6-MI internal; blunt, 6-MI:A mismatch
Msh2;Msh6 [3] = target: T1, Msh2;Msh6; assay: fluorescence intensity; Fluorescence/FRET: 10 mM sodium phosphate pH 7.5, 100 mM NaCl, 5 mM MgCl2, 10 C (10 nM DNA for anisotropy); EMSA: 20 mM Tris-Cl pH 7.5, 100 mM NaCl, 5 mM MgCl2, 2% ficoll, 4 C, 10 nM DNA; conditions: protein: recombinant;recombinant, tags: ;, copies: 1;1, label: 6-MI internal, blunt
Msh2;Msh6 [4] = target: T1, Msh2;Msh6; assay: fluorescence anisotropy; Figure S2 legend gives 92.1 ± 13.9; Fluorescence/FRET: 10 mM sodium phosphate pH 7.5, 100 mM NaCl, 5 mM MgCl2, 10 C (10 nM DNA for anisotropy); EMSA: 20 mM Tris-Cl pH 7.5, 100 mM NaCl, 5 mM MgCl2, 2% ficoll, 4 C, 10 nM DNA; conditions: protein: recombinant;recombinant; tags: ;; copies: 1;1; label: 5' Alexa Fluor 647 on strand 1; blunt homoduplex
Msh2;Msh6 [5] = target: T1, Msh2;Msh6; assay: fluorescence anisotropy; Table 1 prints this value in the intensity column of +T_6-MI; Fluorescence/FRET: 10 mM sodium phosphate pH 7.5, 100 mM NaCl, 5 mM MgCl2, 10 C (10 nM DNA for anisotropy); EMSA: 20 mM Tris-Cl pH 7.5, 100 mM NaCl, 5 mM MgCl2, 2% ficoll, 4 C, 10 nM DNA; conditions: protein: recombinant;recombinant; tags: ;; copies: 1;1; label: 5' Alexa Fluor 594 on strand 1; blunt, unpaired T14 in strand 1

B1: 6-MI:C (dsDNA)
DNA 1: TATGCAGTCACTATGAATCAACTACTTAGATGGT
DNA 2: ACCATCTAAGTAGTTGATTCATAGTGACTGCATA
modifications: 6-MI replaces G15 of strand 1 (F, written G)
- Kd (Msh2;Msh6 [1]; label: 6-MI internal, 34 bp homoduplex): 122 ± 12.1 nM

B2: 6-MI:G (dsDNA)
DNA 1: B1 DNA 1
DNA 2: B1 DNA 2 with C20G
modifications: 6-MI replaces G15 of strand 1 (F, written G)
- Kd (Msh2;Msh6 [1]; label: 6-MI internal, 6-MI:G mismatch): 10.4 ± 5.8 nM

B3: 6-MI:A (dsDNA)
DNA 1: B1 DNA 1
DNA 2: B1 DNA 2 with C20A
modifications: 6-MI replaces G15 of strand 1 (F, written G)
- Kd (Msh2;Msh6 [2]): 25.8 ± 12.3 nM

B4: 6-MI_A:C (dsDNA)
DNA 1: B1 DNA 1
DNA 2: B1 DNA 2 with T19C
modifications: 6-MI replaces G15 of strand 1 (F, written G)
- Kd (Msh2;Msh6 [1]; label: 6-MI internal, A16:C mismatch): 13.3 ± 3.6 nM
- Kd (Msh2;Msh6 [3]; A16:C mismatch): 17.1 ± 4.3 nM

B5: 6-MI_A:G (dsDNA)
DNA 1: B1 DNA 1
DNA 2: B1 DNA 2 with T19G
modifications: 6-MI replaces G15 of strand 1 (F, written G)
- Kd (Msh2;Msh6 [1]; label: 6-MI internal, A16:G mismatch): 9 ± 2.8 nM
- Kd (Msh2;Msh6 [3]; A16:G mismatch): 11.8 ± 2.8 nM

B6: +T_6-MI (dsDNA)
DNA 1: B1 DNA 1
DNA 2: ACCATCTAAGTAGTTGATTCTAGTGACTGCATA
modifications: 6-MI replaces G15 of strand 1 (F, written G)
- Kd (Msh2;Msh6 [1]; label: 6-MI internal, unpaired T14 in strand 1 (34/33 nt)): 16 ± 2.9 nM

B7: G:T_AF594 (dsDNA)
DNA 1: B1 DNA 1
DNA 2: B1 DNA 2 with C20T
modifications: 5' amino C6 on strand 1
- Kd (Msh2;Msh6 [1]; label: 5' Alexa Fluor 594 on strand 1, G15:T mismatch): 13.3 ± 3.9 nM

B8: G:C_AF647 (dsDNA)
DNA 1: B1 DNA 1
DNA 2: B1 DNA 2
modifications: 5' amino C6 on strand 1
- Kd (Msh2;Msh6 [4]): 106 ± 13.9 nM

B9: 6-MI_A:A (dsDNA)
DNA 1: B1 DNA 1
DNA 2: B1 DNA 2 with T19A
modifications: 6-MI replaces G15 of strand 1 (F, written G)
- Kd (Msh2;Msh6 [1]; label: 6-MI internal, A16:A mismatch): 7.9 ± 2 nM
- Kd (Msh2;Msh6 [3]; A16:A mismatch): 19.1 ± 3.5 nM

B10: +T_AF594 (dsDNA)
DNA 1: B1 DNA 1
DNA 2: B6 DNA 2
modifications: 5' amino C6 on strand 1
- Kd (Msh2;Msh6 [5]): 18.1 ± 2.6 nM

B11: T:G_6-MI (dsDNA)
DNA 1: B1 DNA 1
DNA 2: B1 DNA 2 with A21G
modifications: 6-MI replaces G15 of strand 1 (F, written G)
- Kd (Msh2;Msh6 [1]; label: 6-MI internal, T14:G mismatch): 25.9 ± 1.2 nM

B12: A:A_6-MI (dsDNA)
DNA 1: B1 DNA 1 with T26A
DNA 2: B1 DNA 2
modifications: 6-MI replaces G10 of strand 2 (F, written G)
- Kd (Msh2;Msh6 [1]; label: 6-MI internal, A26:A mismatch): 11.3 ± 3.1 nM
- Kd (Msh2;Msh6 [3]; A26:A mismatch): 10.4 ± 2.4 nM

B13: G:G end-labeled (dsDNA)
DNA 1: B1 DNA 1
DNA 2: B1 DNA 2 with C20G
modifications: 5' amino C6
- Kd (Msh2;Msh6 [1]; label: Alexa Fluor 594 or 647, G15:G mismatch): 15.6 ± 3.4 nM

B14: T:C_6-MI (dsDNA)
DNA 1: B1 DNA 1
DNA 2: B1 DNA 2 with A21C
modifications: 6-MI replaces G15 of strand 1 (F, written G)
- Kd (Msh2;Msh6 [1]; label: 6-MI internal, T14:C mismatch): 113 ± 18.7 nM

B15: T:T_6-MI (dsDNA)
DNA 1: B1 DNA 1
DNA 2: B1 DNA 2 with A21T
modifications: 6-MI replaces G15 of strand 1 (F, written G)
- Kd (Msh2;Msh6 [1]; label: 6-MI internal, T14:T mismatch): 77.5 ± 20 nM

B16: 6-MI:T (dsDNA)
DNA 1: B1 DNA 1
DNA 2: B1 DNA 2 with C20T
modifications: 6-MI replaces G15 of strand 1 (F, written G)
- Kd (Msh2;Msh6 [1]; label: 6-MI internal, 6-MI:T mismatch): 13.7 ± 3.4 nM
